# From the supplement of paper PMC7877785
# ± gives the uncertainty stated by the source.
# Assay: self-splicing fitness, log relative to wild type (ln ratio); higher = more splicing; Tetrahymena group I intron in knt gene, E. coli kanamycin selection, DiMSum; sequences stand for … in CUCUCU…GGAGGGAAAAGUUAUCAGGCAUGCACCUGGUAGCUAGUCUUUAAACCAAUAGAUUGCAUCGGUUUAAAAGGCAAGACCGUCAAAUUGCGGGAAAGGGGUCAACAGCCGUUCAGUACCAAGUCUCAGGGGAAACUUUGAGAUGGCCUUGCAAAGGGUAUGGUAAUAAGCUGACGGACAUGGUCCUAACCACGCAGCCAAGUCCUAAGUCAACAGAUCUUCUGUUGAUAUGGAUGCAGUUCACAGACUAAAUGUCGGUCGGGGAAGAUGUAUUCUUCUCAUAAGAUAUAGUCGGACCUCUCCUUAAUGGGAGCUAGCGGAUGAAGUGAUGCAACACUGGAGCCGCUGGGAACUAAUUUGUAUGCGAAAGUAUAUUGAUUAGUUUUGGAGUACUCGUGGUCG
# Procedure, shortened: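 Fitness was computed with DiMSum as the error-weighted combination of replicate fold changes, kanamycin versus none, each normalised to wild type. The library randomised all eight intron nucleotides of the P1ex region, with the intron placed in the knt kanamycin-resistance gene on pET-22b(+) in E. coli BL21(DE3). Six replicate transformations were grown overnight at 37°C or 30°C on LB agar with or without 25 μg/mL kanamycin, plus 100 μg/mL carbenicillin, 50 μM IPTG and 0.2% rhamnose. Pooled colonies were amplicon-sequenced on an Illumina HiSeq 2500.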
Sequence,self-splicing fitness (ln) (30 °C),self-splicing fitness (ln) (37 °C)
AUGCAGCAAUAUUACGAGCA,-0.52 ± 0.089,-0.627 ± 0.097
AUGCAGCAAUAUUACGAUGA,-1.93 ± 0.16,-1.04 ± 0.14
AUGCAGCAAUAUUACGAUGU,-0.358 ± 0.061,0.146 ± 0.085
AUGCAGCAAUAUUACGAUUG,-2.67 ± 0.2,-2.83 ± 0.32
AUGCAGCAAUAUUACGCACU,-0.148 ± 0.12,0.309 ± 0.16
AUGCAGCAAUAUUACGCCCC,-0.386 ± 0.27,-1.04 ± 0.27
AUGCAGCAAUAUUACGCGAA,-1.76 ± 0.13,-1.03 ± 0.11
AUGCAGCAAUAUUACGCGGA,-2.88 ± 0.11,-0.559 ± 0.069
AUGCAGCAAUAUUACGCGUA,-2.09 ± 0.18,-1.71 ± 0.2
AUGCAGCAAUAUUACGCUAU,-2 ± 0.12,-1.33 ± 0.14
AUGCAGCAAUAUUACGGCUU,-0.164 ± 0.072,0.254 ± 0.085
AUGCAGCAAUAUUACGUACA,-0.892 ± 0.064,-0.686 ± 0.076
AUGCAGCAAUAUUACGUCAA,-2.35 ± 0.19,-0.997 ± 0.14
AUGCAGCAAUAUUACGUCCU,0.0695 ± 0.095,0.786 ± 0.11
AUGCAGCAAUAUUACGUCGG,-2.43 ± 0.22,-1.91 ± 0.26
AUGCAGCAAUAUUACGUGAU,-1.76 ± 0.067,-0.91 ± 0.08
AUGCAGCAAUAUUACGUUAA,-2.58 ± 0.1,-1.71 ± 0.094
AUGCAGCAAUAUUACGUUUA,-2.04 ± 0.095,-1.21 ± 0.089
AUGGAGCAAUAUUACGAACG,-2.21 ± 0.25,-2.35 ± 0.5
AUGGAGCAAUAUUACGAAUG,-3.6 ± 0.34,-2.35 ± 0.18
AUGGAGCAAUAUUACGAAUU,-3.14 ± 0.47,-1.14 ± 0.25
AUGGAGCAAUAUUACGAGAU,-3.73 ± 0.28,-1.96 ± 0.2
AUGGAGCAAUAUUACGAUGA,-2.98 ± 0.41,-1.36 ± 0.46
AUGGAGCAAUAUUACGCUGC,,-2.95 ± 0.38
AUGGAGCAAUAUUACGCUUG,-1.46 ± 0.12,-0.294 ± 0.12
AUGGAGCAAUAUUACGGAUC,-2.51 ± 0.25,-2.57 ± 0.36

Sequence,self-splicing fitness (ln) (30 °C),self-splicing fitness (ln) (37 °C)
AUGGAGCAAUAUUACGGCAC,-1.14 ± 0.37,-0.0162 ± 0.42
AUGGAGCAAUAUUACGGCCU,-1.32 ± 0.19,-0.862 ± 0.24
AUGGAGCAAUAUUACGGGAA,-2.71 ± 0.2,-2.33 ± 0.17
AUGGAGCAAUAUUACGGGCU,,-1.55 ± 0.41
AUGGAGCAAUAUUACGUAAA,-3.85 ± 0.26,-2.09 ± 0.26
AUGGAGCAAUAUUACGUAAU,-0.694 ± 0.15,-0.189 ± 0.12
AUGGAGCAAUAUUACGUAGU,-2.7 ± 0.11,-1.62 ± 0.097
AUGGAGCAAUAUUACGUCUA,-1.38 ± 0.23,-0.778 ± 0.19
AUGGAGCAAUAUUACGUCUG,-2.81 ± 0.24,-2.04 ± 0.25
AUGGAGCAAUAUUACGUGAA,-2.92 ± 0.27,-2.03 ± 0.42
AUGGAGCAAUAUUACGUUCG,-1.89 ± 0.14,-0.826 ± 0.19
AUGGAGCAAUAUUACGUUUU,-3.1 ± 0.36,-2.05 ± 0.31
AUGUAGCAAUAUUACGAAAA,-0.961 ± 0.34,-0.547 ± 0.31
AUGUAGCAAUAUUACGAACG,-1.27 ± 0.13,-0.894 ± 0.16
AUGUAGCAAUAUUACGAAGG,-3.73 ± 0.34,-2.61 ± 0.3
AUGUAGCAAUAUUACGAGCA,-1.07 ± 0.11,-1.07 ± 0.12
AUGUAGCAAUAUUACGAGGC,,-1.47 ± 0.28
AUGUAGCAAUAUUACGAGUG,-2.52 ± 0.12,-2.72 ± 0.18
AUGUAGCAAUAUUACGAUAA,-1.76 ± 0.13,-1 ± 0.15
AUGUAGCAAUAUUACGAUAC,-3.33 ± 0.28,-1.82 ± 0.21
AUGUAGCAAUAUUACGAUGC,-1.49 ± 0.11,-0.827 ± 0.16
AUGUAGCAAUAUUACGCAAC,-2.69 ± 0.45,-0.382 ± 0.27
AUGUAGCAAUAUUACGCACG,-1.02 ± 0.11,0.147 ± 0.14
AUGUAGCAAUAUUACGCAGC,-2.64 ± 0.37,-0.433 ± 0.17
AUGUAGCAAUAUUACGCAUA,-2.46 ± 0.28,-1.85 ± 0.26
AUGUAGCAAUAUUACGCCUA,-0.493 ± 0.17,0.198 ± 0.23

Sequence,self-splicing fitness (ln) (30 °C),self-splicing fitness (ln) (37 °C)
AUGUAGCAAUAUUACGCGGG,-4.31 ± 0.33,-2.37 ± 0.2
AUGUAGCAAUAUUACGCUCU,-1.95 ± 0.13,-0.655 ± 0.17
AUGUAGCAAUAUUACGGACA,-0.611 ± 0.083,0.202 ± 0.12
AUGUAGCAAUAUUACGGAUA,-1.43 ± 0.16,-1.83 ± 0.28
AUGUAGCAAUAUUACGGCAC,-1.59 ± 0.18,0.329 ± 0.18
AUGUAGCAAUAUUACGGCUG,-1.95 ± 0.14,-2.27 ± 0.28
AUGUAGCAAUAUUACGGGAU,-1.9 ± 0.12,-1.33 ± 0.2
AUGUAGCAAUAUUACGUAAU,-1.21 ± 0.11,-0.524 ± 0.12
AUGUAGCAAUAUUACGUCCG,-2.71 ± 0.13,-1.39 ± 0.12
AUGUAGCAAUAUUACGUCUA,-1.25 ± 0.14,-0.893 ± 0.15
AUGUAGCAAUAUUACGUGUC,-3.79 ± 0.31,-2.81 ± 0.26
AUGUAGCAAUAUUACGUUGA,-3.43 ± 0.29,-1.35 ± 0.22
AUGUAGCAAUAUUACGUUUA,-2.38 ± 0.13,-1.86 ± 0.12
AUUAAGCAAUAUUACGAAUA,-1.29 ± 0.21,-0.938 ± 0.21
AUUAAGCAAUAUUACGAGAA,,-1.08 ± 0.38
AUUAAGCAAUAUUACGAGAU,-2.99 ± 0.21,-1.47 ± 0.16
AUUAAGCAAUAUUACGAGCU,-0.659 ± 0.14,-0.821 ± 0.2
AUUAAGCAAUAUUACGAGUU,-2.42 ± 0.17,-1.27 ± 0.22
AUUAAGCAAUAUUACGCGCG,-0.63 ± 0.13,-0.752 ± 0.17
AUUAAGCAAUAUUACGCGGC,,-2.33 ± 0.31
AUUAAGCAAUAUUACGCUGU,-3.23 ± 0.16,-1.97 ± 0.19
AUUAAGCAAUAUUACGCUUU,-2.38 ± 0.24,-1.24 ± 0.32
AUUAAGCAAUAUUACGGCUG,-0.405 ± 0.083,-0.233 ± 0.1
AUUAAGCAAUAUUACGGGGU,-4.11 ± 0.24,-2.83 ± 0.2
